One block for each binder: values may come before it.
What was measured:
[1] = biological target: T1, mouse GPVI extracellular domain fused at its C-terminus to human IgG1 Fc (GPVI-Fc) (mouse; human); assay: Solution equilibrium titration (SET), Fab with GPVI-Fc
T1 construct: also called mGPVI; mouse GPVI-Fc
Description: (§1) Affinity determination in solution was basically performed as described in the literature (Friguet et al. 1985). In order to improve the sensitivity and accuracy of the SET method, it was transferred from classical ELISA to ECL-based technology (Haenel et al. 2005).
(§2) 1 mg/mL goat-anti-human (Fab)2 fragment specific antibodies (Dianova) were labeled with MSD Sulfo TAG™ NHS-Ester (Meso Scale Discovery | Gaithersburg | Md. | USA) according to the manufacturer's instructions. The experiments were carried out in polypropylene microtiter plates and PBS (GIBCO 14190 | pH 7.0-7.2) containing 0.5% BSA and 0.02% Tween20 as assay buffer. Serial dilutions of unlabeled human GPVI-Fc (SEQ ID NO: 4), cynomolgus monkey GPVI-Fc (SEQ ID NO: 7), and mouse GPVI-Fc (SEQ ID NO: 8) (as prepared in Example 1) were prepared, starting with a concentration at least 10 times higher than the expected KD. Wells without antigen were used to determine Bmax values; wells containing only assay buffer were used to determine background. After addition of appropriate amount of binder (antibody concentration similar to or below the expected KD, 60 μL final volume), the mixture was incubated over night at RT. MSD plates were coated with antigen or biotinylated antigen on standard and streptavidin plates, respectively (30 μL per well). After washing the plate with PBS with 0.05% Tween 20, the equilibrated samples were transferred to the plates and incubated for 20 min. Following incubation, 30 μL per well of the MSD-Sulfo-tag labeled detection antibody (anti-human (Fab)2 | final dilution typically 1:2,000) was added to the washed MSD plate and incubated for 30 min at RT on an Eppendorf shaker (700 rpm). After washing the MSD plate and adding 30 μL/well MSD Read Buffer T with surfactant, electrochemiluminescence signals were detected using a Sector Imager 6000 (Meso Scale Discovery | Gaithersburg | Md. | USA). The data was evaluated with XLfit (IDBS) software applying customized fitting models. For KD determination of Fabs the fit model according to (Haenel et al. 2005), modified according to (Abraham et al.) was used.

[2] = biological target: T2, human GPVI-1A extracellular domain fused at its C-terminus to human IgG1 Fc (GPVI-Fc) (human); assay: as above
T2 construct: also called hGPVI-1a; hGPVI
Description: as §1, §2

[3] = biological target: T3, cynomolgus monkey GPVI extracellular domain fused at its C-terminus to human IgG1 Fc (GPVI-Fc) (cynomolgus monkey; human); assay: as above
T3 construct: also called cyGPVI-2; cyGPVI
Description: as §1, §2

[4] = biological target: T1, mouse GPVI extracellular domain fused …; assay: Competition ELISA (MSD): mouse GPVI-Fc preincubated with Fab, then on coated CRP-XL (competitor)
Description: (§3) 1 or 10 μg/ml of recombinant GPVI collagen substrate (crosslinked collagen-related peptide (CRP-XL (Anaspec, Inc.), rat-tail collagen (Enzo Life Sciences) or VitroCol (Advanced BioMatrix, Inc.) was coated on a MSD-plate over night at 4° C., washed with PBST, blocked for 1 h at RT with PBS supplemented with 0.05% Tween-20 and 3% skim milk powder, and subsequently washed again with PBST. Purified recombinant GPVI antigens (human, cynomolgus monkey or mouse GPVI as prepared in Example 1) diluted in PBS and varying concentrations of Fab (comprising a modified heavy chain constant region) diluted in PBS (final concentration range 200-0.3 μg/ml) were incubated in a polypropylene plate for 30 min at RT. Fab/GPVI-Fc mixture was added to coated collagen substrate for 1 h at RT. After washing with PBST, bound GPVI form different species was detected using an ECL-conjugated detection antibody directed against human Fc (Jackson Immuno Research) for 1 h at RT. MSD read buffer (Meso Scale Discovery) was added prior to readout in a Sector Imager6000 (Meso Scale Discovery).

[5] = biological target: T3, cynomolgus monkey GPVI extracellular …; assay: Competition ELISA (MSD): cynomolgus GPVI-Fc preincubated with Fab, then on coated CRP-XL (competitor)
Description: as §3

[6] = biological target: T4, cynomolgus monkey GPVI on the cell surface of cynomolgus monkey platelets (cynomolgus monkey); assay: FACS on washed cynomolgus platelets from PRP (one donor), PE-conjugated detection antibody, median fluorescence
T4 construct: whole, on cells; also called GPVI on cynomolgus monkey platelets
Description: (§4) Platelet-rich plasma (PRP) from up to 4 donors was prepared by centrifugation of citrated whole blood for 15 min at 150×g without brake. The resulting supernatant was transferred as PRP into a new sample tube without disturbing the underlying leukocyte-rich interphase. After careful washing in Tyrode's buffer supplemented with Prostacyclin 1₂ (PGI2; Epoprostenol-Rotexmedica), platelets were resuspended in Tyrode's/PGI2 and transferred to 96 well V-bottom microtiter plates. Platelets were spiked with Fab (comprising a modified heavy chain constant region) diluted to final concentrations between 0.015-30 μg/ml in Tyrode's/PGI2 and incubated for 30 min at RT. Platelets were carefully washed to remove non-bound Fab and then incubated for 30 min at RT with a Phycoerythrine (PE)-conjugated detection antibody (Jackson ImmunoResearch). After incubation for 30 min at RT, platelets were analyzed by flow cytometry in a FACS Canto II (Becton Dickinson). In the case of Fab directly conjugated with PE (FIG. 1D), incubation with detection antibody was omitted. Data was evaluated using FACS Diva software (Becton Dickinson). EC50 values were calculated using Prism 5 software (GraphPad).

[7] = biological target: T5, mouse GPVI on the cell surface of mouse platelets (mouse, UniProt P0C191 22-313); assay: FACS on washed murine platelets from PRP (one exemplary donor), PE-conjugated detection antibody, median fluorescence
T5 construct: whole, on cells; also called GPVI on murine platelets
T5 sequence (looked up): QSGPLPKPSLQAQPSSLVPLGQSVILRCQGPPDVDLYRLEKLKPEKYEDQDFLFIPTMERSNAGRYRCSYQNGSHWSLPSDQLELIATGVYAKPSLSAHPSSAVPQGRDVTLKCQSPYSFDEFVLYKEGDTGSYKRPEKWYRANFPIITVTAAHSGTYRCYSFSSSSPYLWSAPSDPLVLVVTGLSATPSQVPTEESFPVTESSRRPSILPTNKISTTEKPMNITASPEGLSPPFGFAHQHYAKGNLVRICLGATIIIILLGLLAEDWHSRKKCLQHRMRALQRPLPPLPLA
Description: as §4

Kd [1]: 28000 pM | Kd [2]: 68 pM | Kd [3]: 75 pM | IC50 [4]: 26400 pM | Max. inhibition at 200 nM Fab [%] [4]: 77% | IC50 [5]: 11500 pM | Max. inhibition at 200 nM Fab [%] [5]: 59% | EC50 (read off the curve) [6]: ~0.4 µg/mL | EC50 (read off the curve) [7]: ~3 µg/mL
B1: Fab #1 comprising a modified heavy chain constant region (Fab, V domains shown)
VH: QVQLVQSGAEVKKPGASVKVSCKASGYTFTSHYMHWVRQAPGQGLEWMGLIEPSEGETEYAQRFQGRVTMTRDTSTSTVYMELSSLRSEDTAVYYCARDSSRSYPLGFDIWGQGTLVTVSS
VL: QSVLTQPPSVSAAPGQKVTISCSGSSSNIGNNYVSWYQQLPGTAPKLLIYDNNKRPSGIPDRFSGSKSGTSATLGITGLQTEDEADYYCAAWDFRSSRWVFGGGTKLTVLG
notes: Human Fab from the Ylanthia library; produced in HKB11 cells; also called Fab #1 mod; HC

Kd [1]: 7100 pM | Kd [2]: 27 pM | Kd [3]: 24 pM | IC50 [4]: 12000 pM | Max. inhibition at 200 nM Fab [%] [4]: 99% | IC50 [5]: 7900 pM | Max. inhibition at 200 nM Fab [%] [5]: 100% | EC50 (read off the curve) [6]: ~0.6 µg/mL | EC50 (read off the curve) [7]: ~0.5 µg/mL
B2: Fab #2 comprising a modified heavy chain constant region (Fab, V domains shown)
VH: QVQLVESGGGLVKPGGSLRLSCAASGFSFSDHYMSWIRQAPGKGLEWVSSVGSEGKFIDYAASVKGRFTISRDNAKNSLYLQMNSLRAEDTAVYYCARHYREFRWHYYYFDYWGQGTLVTVSS
VL: QSVLTQPPSVSGAPGQRVTISCTGSSSNIGAGYDVHWYQQLPGTAPKLLIYGNSNRPSGVPDRFSGSKSGTSASLAITGLQAEDEADYYCQSHDLGAHVWVFGGGTKLTVLG
notes: Human Fab from the Ylanthia library; produced in HKB11 cells; also called Fab #2 mod; HC

Kd [1]: 600 pM | Kd [2]: 62 pM | Kd [3]: 68 pM | IC50 [4]: 8100 pM | Max. inhibition at 200 nM Fab [%] [4]: 100% | IC50 [5]: 9100 pM | Max. inhibition at 200 nM Fab [%] [5]: 100% | EC50 (read off the curve) [6]: ~0.6 µg/mL | EC50 (read off the curve) [7]: ~0.3 µg/mL
B3: Fab #3 comprising a modified heavy chain constant region (Fab, V domains shown)
VH: QVQLVESGGGLVKPGGSLRLSCAASGFSFGDYYVSWIRQAPGKGLEWVSAIGGSGSAVQYAESVKGRFTISRDNAKNSLYLQMNSLRAEDTAVYYCARHYREFRWHYYYFDYWGQGTLVTVSS
VL: B2 VL
notes: Human Fab from the Ylanthia library; produced in HKB11 cells; also called Fab #3 mod; HC

Kd [1]: 290 pM | Kd [2]: 22 pM | Kd [3]: 17 pM | IC50 [4]: 10600 pM | Max. inhibition at 200 nM Fab [%] [4]: 67% | IC50 [5]: 11300 pM | Max. inhibition at 200 nM Fab [%] [5]: 51% | EC50 (read off the curve) [6]: ~0.7 µg/mL | EC50 (read off the curve) [7]: ~0.2 µg/mL
B4: Fab #4 comprising a modified heavy chain constant region (Fab, V domains shown)
VH: QVQLVQSGAEVKKPGASVKVSCKASGGAFTSSYMHWVRQAPGQGLEWMGIIEPTGASTLYAQRFQGRVTMTRDTSTSTVYMELSSLRSEDTAVYYCARTGIALPLGFDLWGQGTLVTVSS
VL: QSVLTQPPSVSAAPGQKVTISCSGSSSNIGNNYVSWYQQLPGTAPKLLIYDNNKRPSGIPDRFSGSKSGTSATLGITGLQTEDEADYYCAAWSTRFRWVFGGGTKLTVLG
notes: Human Fab from the Ylanthia library; produced in HKB11 cells; also called Fab #4 mod; HC

Kd [2]: 54 pM | Kd [3]: 36 pM | IC50 [5]: 9500 pM | Max. inhibition at 200 nM Fab [%] [5]: 100% | EC50 (read off the curve) [6]: ~0.5 µg/mL
B5: Reference Control Antibody RefFab #1 (humanized GPVI antibody of WO2011073954A2, SANOFI) (Fab, V domains shown)
VH: EVQLLESGPGLVAPSGSLSITCTVSGFSLTGYGVNWVRQPPGKGLEWLGMIWGDGSTDYQSTLKSRLSISKDNSKSQVFLKMNSLRTDDTARYYCARDLPMDYWGLGTSVTVSS
VL: DIQMTQSPSSLSASVGGRVTITCKASQDINKYIAWYQHKPGKGPSLLIHYTSTLQPGVPSRFSGSGSGRDYSFSISNLQPEDIATYYCLQYANLLTFGGGTKLEIKR
notes: Cloned into mammalian Fab expression vectors; a glycine-serine linker (G4S)2 was added to the C-terminus of the Fab heavy chain

Source: patent US20210214435A1 (MorphoSys, published 2021)
